Measurements: patent publication US20210300999A1 (published 2021)

Target: SARS-CoV-2 prefusion-stabilized trimeric spike ectodomain (S2Pecto) (SARS-CoV-2;, UniProt P0DTC2 14-1213; P10104 458-484)
Experiment: ELISA

B1: COV2-2196 (antibody, V domains shown)
VH: QMQLVQSGPEVKKPGTSVKVSCKASGFTFMSSAVQWVRQARGQRLEWIGWIVIGSGNTNYAQKFQERVTITRDMSTSTAYMELSSLRSEDTAVYYCAAPYCSSISCNDGFDIWGQGTMVTVSS
VL: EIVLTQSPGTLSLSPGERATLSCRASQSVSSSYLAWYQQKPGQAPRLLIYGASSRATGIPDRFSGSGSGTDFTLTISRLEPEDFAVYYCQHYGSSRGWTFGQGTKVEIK
IC50: 0.058 mg/L
